This data set can be described thus: soluble on expression in E. coli; label from the status in PepcDB or PDB records.
For the sequence “MGSDKIHHHHHHMTRLAIVRQKYNPAGGAERFVSRALAALRDKGELEVSLIARRWEPVEGVKAYQVDGPYLGNVWRDWSFARKARRIWLREGFDLVQSHERIPGCDVYRAGDGVHRRWLQLRRQGMSAWGRFVLWCNPYHHYIQRAESEMFHHPRLKRVICNSQMVKREIQQYFGLSDQQIVVIYNGVDLQSFHPGLRSEHRQAMRSQWGVPGDAPLLLYVGSGFERKGVARALKALQANPGAWLMVVGGDKRLARYRRLADELGVDARVVFAGAQGEVRPFYGMADAFILPTLYDPFPNVCVEALASGLPVLTTRQCGAAEFVRQGENGWVCDAFDEEALARSVAEWLSVSRNWPVLAEAARRSVEGLSLGAMAERMLNCYRDLLSVSAVA”, the “soluble on expression in E. coli” value was “not soluble”.
Regarding “MARYSLHAGHNSIVQGANYGNRKEHIMDRQVKDAVVAKLRALGHTVYDDTDEVGTTQAQNLNNIVSKTNSHDVDLVVSFHLNSYDTRANGVEVLYYDQQALSAKIAAQLSKDIGWSNRGAKERKDLYVLSNTKAPAILIELGFIDNEADMAKWNPDKIANSIVYALTGQSGGTTPPSKQNIIQSGAFSPYETPDVMGALTSLKMTANFILQSDGLTYFISEPTSDAQLKGMTDYLDRRGWWYEVK”, the “soluble on expression in E. coli” value is on record as “not soluble”.
Consider “MGSDKIHHHHHHMQGSRFAFGPFVLDPGAGTLLRNDDPVAVGYRGLKLLAALVGRPGEILEKAELMDAAWPGTAVEEGNLTVQIAQLRKLLGPPADGGEWISTVPRVGYRFTGAIEQLDRAKRKPLPLPDKPSIAVLPFVNLSNDPEQEAFADGLTEDLITDLSRAPGLFVIARNSTFAYKGKAMDVRAIAEELGVRYLLEGSARRAAGRVRINAQLVDAKSGEHLWAERFDRGLDDIFAVQDEATAKIVEALLGRLRAPPPRNRPTNLEAYDLCVRARKLIEESPQTAREAHLLLTRAVSLDPEYAEAHRWLAMNHWMGWVHWGEPVDPNRRIALELARKAVAIDPNDAGCRWVLGNLLAYEHSFEESEAEFAKAFELDPNEADAWATLSDIAVLAGRVEEGLEHIRKAFRLNPYPASWYYLTLGEAQYAARDYEAAVETLRREETYRTSSRRFLAASLAQLGRLDEARAEVEMFLIGNPHFTTSYWVWTEPFRDDAMRDHFVDGFRKAGLPD”, for which the “soluble on expression in E. coli” value was “not soluble”.
As for “MGSDKIHHHHHHMGKPHRIALALQGGGVHGAFTWGVLDALLEEAATGKIEFVGVSGASSGALTATAMAYGYHEGAAQPGPASARSRRMAEAARTKIRELWETVARAAFWGGNPFVAAIGLAQDWNIDDTPAARWADVAGGNTPAAESGLGTYLTAVLRDVLPQIPAIFALPQEGTPTLIVAATDIGECRRQLFIDGAVSPDAVRASTNLPTSLHTVSIGDHHYWDGGYMGNPPLTPLVERLRETNAEDLVLVTLNPLHRDGPPPKGGRQVLDRLNEVAFNASLVHEVNAIETINRLVDADMIKEPPPGQHPYRRVNLHRIHADEEMVKLGVYSKDAPAWDFLVYLRDLGRKAFTESWETIRPALGKHSSWDTNSVCDQILARKAITTREK”, the “soluble on expression in E. coli” value was “not soluble”.
Consider “MIPKKSSFIVTYAFRIKPTSPQDSGSNRMIIVITPTYKRITRLADITRLANTLSQVENLHWIVIEDGESTIPNVQNILERSELLYTYVAHRTASGYPARGWYQRDMALKLIRTNPSQILGEHEGEAVIYFADDDNSYDLRLFEDYIRNVKKLGLWAVGLAGGAAVEAPNVVNKKVTSFNFKWKSKRRFAVDMAGFAINLDYILNSSAVFGTECKRGDGAPETCLLEDLGFDLNDIEPFGYEKEASEIYSSLYSMVFYLQKNNEILVWHTKTSYSGMKVKEAEKFGYFVEP”, for which the “soluble on expression in E. coli” value is on record as “not soluble”.
Then “MVKTAVLMATYNGEIFISEQLDSIRQQTLKPDYVLLRDDCSTDETVNVVNNYIAKHELEGWKIVKNDKNLGWRLNFRQLLIDVLAYEVDYVFFSDQDDIWYLDKNERQFAIMSDKPQIEVLSADVDIKTMSTEASVPHFLTFSSSDRISQYPKVYDYQTFRPGWTIAMKRDFAQAIADNWTFGANISHDNLIETTASIIGNGYNLNESVGVHIRYGGNASGNSKFVLNWKSPKTQHITGLKTFVDFYETMQKVVNKYQNDVALNQRLAFEKERLEASKLSLIHNSAFVIKNWRLYNSNSGRMRDLLFAFKKLEHHHHHH”, with “soluble”.
Take “MAHHHHHHMPSMTSLLHKSLVVCFTSRISIFTSRPARGTAASAQLSLSSVPTAEHLECWTRQGDCVVGREEVACASCLGGYLAAGTISGLVLLYFCGAAESLVKELVRFNVGYGVTGMQLLPNDTLLVVTSVGDVWRWPLCDLLRNADASGAEGEKDEATEAEPTAAAHQPPLPLAAPRVPAAPSPQDKTLHTEPRVPATPEEVSYTQEGDTEDRSFSAHDTSTLAHTPQREREATARVEEIVTAVRVGADVPLVGARSDAEEQGTPSVHLSTASASLRALSASSENDGDEDHPDERGNDNTDMDARRAEPATVSCLPPPPPLASPTVSDKFEEKRGVGGVTRCATEFQRRTLYDPEQSTEEPGVVDMGVPSSAAGNSADLSHDGLRIAVSPPSTADNTAHHDAVLEDSGADVPEVAARGSAAGAAAVAAKEGTISDKHIQPFQRNHGDLSDTADVAQGTAHSSPGITSRQGTGMKAAVDDLEHEFAHAMKRLLGPTVGVEGLRKDRRMNPRKVAGVLANLTNQQAAAAGAKGLSYEAPSQPRALEGPNSTKLLEEKRTTLEAAVFDFEAYRQAHRLEVDALQYHHPVPAPTYTLQDRVFDAVESAGRLCDKEAGRATGAAGNAAATLPAAPEDELRDVTYGKVKWTLDPQIAEERRRGGPEMAQHHCDHLIFSTPYPAKATVLFAEEAPLMPSTAWEEVLLLPLPLPPAPSVF”: the “soluble on expression in E. coli” value is reported as “soluble”.
As to “MLNLFRNRKRNGAGPTIKKAQKMPELDDFLSNQDYEGAISLLNHKLKAGNLDREEEDSLQLWLAHCYYRLRNYEEAANVYTFLMNKDDAPAELGVYLACCKFYLKQYIEAKSIAEKCPKTPLCIRLMMNVSLRLNDEKRILTFHSSLGDTLEDRLSLAGVNYSRMHYQDAIEVYTSVLQTSPNLIGLNVNMALCYAKMDYPHVAYNLIKNYLRNFPNSPFAKNLLLSVLYRTITSKTTVDEKSELARNIDQEGLTMVSDMEALLKQKLYPEIEYICKHNLVLFKNCETALQVLPSLMKHIPEARVNLILYHLNKNNVKDAISLCKDFDPVTPYEFLVKALTFLRHGQETNSREHLKIAENFFQMVGESGLVQDTIAGRQSSAAYLFLSFKFDDVITYLKSIEAYFTNNDDFLLNLAQAYLMYKNYVAAEKLFIRVSGPERDKILYKSMLARCYVRNKKPQSAWDMMLKTNNPSDRMSLLKVIAQDCYIANEFYYASKAFHEIEISDPTTENWSGKRGACAGLFRQLANHKTDPILISQMREVVHLVAMKPHSNCEFLLKVVRNWAETHNVNIIN”, the “soluble on expression in E. coli” value is listed as “not soluble”.
Turning to “ENGRYEYIVIGSEAAGVGLVRELTAAGKKVLAVDKSKEKIELLEDEGFDAVIADPTDESFYRSLDLEGVSAVLITGSDDEFNLKILKALRSVSDVYAIVRVSSPKKKEEFEEAGANLVVLVADAVKQAFMDKIKKMETL”, the “soluble on expression in E. coli” value is recorded as “not soluble”.
Under “SLSEVEIEEVRLNPDEPQYTMDGLDGRRFDEQGYLKEHLSSKGAKQFPESSDIHFDSPHLVFFQEGRLLYEVGSDEAVYHTENKQVLFKNNVVLTKTADGKRQAGKVEAEKLHVDTESQYAQTDTPVSFQYGASHGQAGGMTYDHKTGMLNFSSKVKATIYDTKDM” stands “not soluble”; under “GPVKLRLTVLCAKNLVKKDFFRLPDPFAKVVVDGSGQCHSTDTVKNTLDPKWNQHYDLYIGKSDSVTISVWNHKKIHKKQGAGFLGCVRLLSNAINRLKDTGYQRLDLCKLGPNDNDTVRGQIVVSLQSRD”, “soluble”; under “TPQQRRLSMARRTAASLGYNECVSYTFIDQASAALFGGGTDATMLENPISSEMSHMRPDLLPGLLAAAARNQARGFADLALFEAGPVFHGGEPGEQRAQIAGLLVGRTGPKDVHGAARAVDLYDAKADAEAVLAAMGAPAKVQILRDGDGWWHPGRHGRICLGPKKVLGVFGELHPRVLQAMDVKGPAVAFVLWPEEVPLPRKSGTTRAALAL”, “not soluble”.
